Experimental data as given in patent US20220017615A1 (SHANGHAI PHARMAEXPLORER, published 2022).

B1: 25E3B5 (antibody, V domains shown)
VH: QVQLQQPGTALVRPGSSVKLSCKASGYTFTSYWMHWVRQRPIKGLEWIGNIDPSDSETHYNQRFKDKVTLTVDKSSNTAYMQLSSLTSEDSAVYYCARWKYHGIGAMDYWGQGTSVTVSS
VL: DVQITQSPSYLAASPGETVTISCRTNRNISKFLAWYQEKPGKTNKLLIYSGSTLHSGIPSRFSGSGSGTDFTLTISRLEPEDFAMYYCQQHNEYPWSFGGGTKLEIK
notes: Murine hybridoma antibody purified on protein G
B2: 4D10B11 (antibody, V domains shown)
VH: QVQLQQSGPELVKPGASVKISCKASGYSFTSYYIHWVKQRPGQGLEWIGWIYPGSGNTKYNEKFKGKATLTADTSSSTADMQLSSLTSEDSAVYYCARRGDWYFDVWGTGTTVTVSS
VL: DIVMSQSPSSLVVSVGEKVTMNCKSSQSLLFSGNQKSSLAWYQQKPGQSPKLLIYWASTRESGVPDRFTGSGSGTDFTLIISTVKAEDLAVYSCQQYYSYPLTFGAGTKLELK
notes: as for B1

Key:
[1] = target: T1, biotin-labeled CD47 extracellular domain protein (CD47-ECD) (UniProt Q08722 19-139, limits assumed, biotin-labeled (sites not given)); experiment: blocking ELISA, biotin-CD47-ECD on coated SIRPα-hFc; Ab 40 nM
T1 construct: extracellular domain; also called CD47 protein

[2] = target: T1, biotin-labeled CD47 extracellular …; experiment: blocking ELISA, biotin-CD47-ECD on coated SIRPα-hFc; Ab 200 nM
Description: (§1) The plate was sealed with plastic film and incubated at 4° C. overnight. The plate was washed twice with plate washing solution [PBS+0.01% (v/v) Tween20] on the next day, and blocking solution [PBS+0.01% (v/v) Tween20 +1% (w/w) BSA] was added to block it at room temperature for 2 hours. […] After incubation at 37° C. for 2 hours, the plate was washed three times with the plate washing solution [PBS+0.01% (v/v) Tween 20]. HRP (horseradish peroxidase) labeled avidin diluent (purchased from Sigma) was added as 100 microliters per well, and after the plate was incubated for 2 hours at 37° C., it was washed 3 times with washing solution [PBS+0.01% (v/v) Tween 20]. 100 μl of TMB substrate was added to each well. After incubated at room temperature for 30 minutes, the plate was added with 100 μl of stop solution (1.0N HCl) to each well.

[3] = target: T2, human CD47, full length, on transfected cells (human, UniProt Q08722 19-323); experiment: FACS CHOK1-hCD47; Ab 0.0128 nM
T2 construct: whole, on cells; also called CHOK1-hCD47

[4] = target: T2, human CD47, full length, on transfected …; experiment: FACS CHOK1-hCD47; Ab 0.32 nM
Description: (§2) The CHOK1-hCD47 stable cell lines and CHOK1-cCD47 stable cell lines were expanded to 90% confluence in a T-75 cell culture flask, the medium was exhausted, washed twice with HBSS buffer (Hanks balanced salt solution) (purchased from Invitrogen), and then treated and collected with enzyme-free cell dissociation solution (Versene solution: purchased from Life technology). The cells were washed twice with HBSS buffer. After counted, the cells were diluted with HBSS to 2×10⁶ cells per ml, added with 1% goat serum blocking solution, wherein the percentage was the mass percantage, incubated on ice for 30 minutes, and then washed twice with HBSS by centrifugation. […] The plate was washed 3 times with FACS buffer by centrifugation, added with 100 μl fixative solution [4% (v/v) Paraformaldehyde] per well to suspend the cells. 10 minutes later, it was washed twice with FACS buffer by centrifugation. The cells were suspended with 100 microliters of FACS buffer, FACS (FACS Calibur, purchased from BD) was used for detection and the results were analyzed.

[5] = target: T1, biotin-labeled CD47 extracellular …; experiment: blocking ELISA, biotin-CD47-ECD on coated SIRPα-hFc; Ab 1.6 nM
[6] = target: T3, cynomolgus CD47, on CHOK1-cCD47 stable cell line (cynomolgus); experiment: FACS CHOK1-cCD47; Ab 0.32 nM
T3 construct: whole, on cells; check before use; also called CHOK1/cynoCD47; monkey-derived CD47

[7] = target: T4, His-tagged CD47 recombinant protein, CD47-His (human, UniProt Q08722 19-141, limits assumed); experiment: ELISA on coated CD47-His; Ab 0 nM (background)
T4 construct: it is not restated for CD47-His; also called human CD47-His protein; antigen CD47-His; not shown: His tag

[8] = target: T1, biotin-labeled CD47 extracellular …; experiment: blocking ELISA, biotin-CD47-ECD on coated SIRPα-hFc; Ab 0 nM
Description: as §1

[9] = target: T1, biotin-labeled CD47 extracellular …; experiment: blocking ELISA, biotin-CD47-ECD on coated SIRPα-hFc; Ab 0.32 nM
Description: as §1

[10] = target: T2, human CD47, full length, on transfected …; experiment: FACS CHOK1-hCD47; Ab 8 nM
Description: as §2

[11] = target: T3, cynomolgus CD47, on CHOK1-cCD47 stable …; experiment: FACS CHOK1-cCD47; Ab 0 nM (background)
Description: as §2

[12] = target: T2, human CD47, full length, on transfected …; experiment: FACS CHOK1-hCD47; Ab 0.064 nM
[13] = target: T4, His-tagged CD47 recombinant protein, …; experiment: ELISA on coated CD47-His; Ab 0.021 nM
Description: (§3) The plate was sealed with plastic film and incubated at 4° C. overnight. The plate was washed twice with plate washing solution [PBS+0.01% (v/v) Tween20] the next day, and blocking solution [PBS+0.01% (v/v) Tween20 +1% (w/w) BSA] was added to block it at room temperature for 2 hours. […] After incubation at 37° C. for 2 hours, the plates were washed three times with plate washing solution [PBS+0.01% (v/v) Tween 20]. HRP (horseradish peroxidase) labeled secondary antibody (purchased from Sigma) was added, incubated at 37° C. for 2 hours, and then washed three times with plate washing solution [PBS+0.01% (v/v) Tween 20]. 1000 of TMB substrate was added to each well. After incubated at room temperature for 30 minutes, the plate was added with 100 μl of stop solution (1.0N HCl) to each well.

[14] = target: T2, human CD47, full length, on transfected …; experiment: FACS CHOK1-hCD47; Ab 40 nM
Description: as §2

[15] = target: T3, cynomolgus CD47, on CHOK1-cCD47 stable …; experiment: FACS CHOK1-cCD47; Ab 0.0128 nM
Description: as §2

[16] = target: T4, His-tagged CD47 recombinant protein, …; experiment: ELISA on coated CD47-His; Ab 2.667 nM
Description: as §3

[17] = target: T3, cynomolgus CD47, on CHOK1-cCD47 stable …; experiment: FACS CHOK1-cCD47; Ab 1.6 nM
Description: as §2

[18] = target: T2, human CD47, full length, on transfected …; experiment: FACS CHOK1-hCD47; Ab 1.6 nM
Description: as §2

[19] = target: T4, His-tagged CD47 recombinant protein, …; experiment: ELISA on coated CD47-His; Ab 0.533 nM
Description: as §3

[20] = target: T4, His-tagged CD47 recombinant protein, …; experiment: ELISA on coated CD47-His; Ab 13.333 nM
Description: as §3

[21] = target: T1, biotin-labeled CD47 extracellular …; experiment: blocking ELISA, biotin-CD47-ECD on coated SIRPα-hFc; Ab 8 nM
Description: as §1

[22] = target: T4, His-tagged CD47 recombinant protein, …; experiment: ELISA on coated CD47-His; Ab 0.107 nM
Description: as §3

[23] = target: T3, cynomolgus CD47, on CHOK1-cCD47 stable …; experiment: FACS CHOK1-cCD47; Ab 8 nM
Description: as §2

[24] = target: T3, cynomolgus CD47, on CHOK1-cCD47 stable …; experiment: FACS CHOK1-cCD47; Ab 0.064 nM
Description: as §2

[25] = target: T2, human CD47, full length, on transfected …; experiment: FACS CHOK1-hCD47; Ab 200 nM
Description: as §2

[26] = target: T4, His-tagged CD47 recombinant protein, …; experiment: ELISA on coated CD47-His; Ab 66.667 nM
Description: as §3

[27] = target: T3, cynomolgus CD47, on CHOK1-cCD47 stable …; experiment: FACS CHOK1-cCD47; Ab 40 nM
Description: as §2

[28] = target: T3, cynomolgus CD47, on CHOK1-cCD47 stable …; experiment: FACS CHOK1-cCD47; Ab 200 nM
Description: as §2

[29] = target: T1, biotin-labeled CD47 extracellular …; experiment: blocking ELISA, biotin-CD47-ECD on coated SIRPα-hFc; Ab 0.0128 nM
[30] = target: T2, human CD47, full length, on transfected …; experiment: FACS CHOK1-hCD47; Ab 0 nM (background)
Description: as §2

[31] = target: T4, His-tagged CD47 recombinant protein, …; experiment: ELISA on coated CD47-His; Ab 0.004 nM
[32] = target: T1, biotin-labeled CD47 extracellular …; experiment: blocking ELISA, biotin-CD47-ECD on coated SIRPα-hFc; Ab 0.064 nM
Description: as §1

Binder | OD450 nm of CD47 bound to SIRPα [1] | OD450 nm of CD47 bound to SIRPα [2] | mean fluorescence intensity [3] | mean fluorescence intensity [4] | OD450 nm of CD47 bound to SIRPα [5] | mean fluorescence intensity [6] | OD450 nm [7] | OD450 nm of CD47 bound to SIRPα [8] | OD450 nm of CD47 bound to SIRPα [9] | mean fluorescence intensity [10] | mean fluorescence intensity [11] | mean fluorescence intensity [12] | OD450 nm [13] | mean fluorescence intensity [14] | mean fluorescence intensity [15] | OD450 nm [16] | mean fluorescence intensity [17] | mean fluorescence intensity [18] | OD450 nm [19] | OD450 nm [20] | also measured
B1 | 0.06 | 0.06 | 120 | 1560 | 0.18 | 4550 | 0.05 | 2.91 | 1.06 | 7020 | 83.5 | 386 | 0.46 | 9790 | 422 | 3.02 | 7400 | 4430 | 2.91 | 2.96 | OD450 nm of CD47 bound to SIRPα [21]: 0.07; OD450 nm [22]: 1.68; mean fluorescence intensity [23]: 13200; mean fluorescence intensity [24]: 1450; mean fluorescence intensity [25]: 9420; OD450 nm [26]: 2.89; mean fluorescence intensity [27]: 9760; mean fluorescence intensity [28]: 7040; OD450 nm of CD47 bound to SIRPα [29]: 2.79; mean fluorescence intensity [30]: 22.9; OD450 nm [31]: 0.14; OD450 nm of CD47 bound to SIRPα [32]: 2.5
B2 | 0.06 | 0.06 | 113 | 1710 | 0.15 | 2540 | 0.05 | 2.84 | 0.77 | 8450 | 75.5 | 480 | 0.69 | 8900 | 218 | 3.03 | 7190 | 4850 | 2.94 | 2.91 | OD450 nm of CD47 bound to SIRPα [21]: 0.06; OD450 nm [22]: 2.13; mean fluorescence intensity [23]: 12100; mean fluorescence intensity [24]: 667; mean fluorescence intensity [25]: 10500; OD450 nm [26]: 2.91; mean fluorescence intensity [27]: 13900; mean fluorescence intensity [28]: 8870; OD450 nm of CD47 bound to SIRPα [29]: 2.76; mean fluorescence intensity [30]: 21.9; OD450 nm [31]: 0.18; OD450 nm of CD47 bound to SIRPα [32]: 2.45
